Target: human plasmin (human) (UniProt P00747)
Experiment: display phage binding to immobilised protease; this row is the reference taken as unit

Chain of human plasmin (human) (P00747 97-810 limits assumed): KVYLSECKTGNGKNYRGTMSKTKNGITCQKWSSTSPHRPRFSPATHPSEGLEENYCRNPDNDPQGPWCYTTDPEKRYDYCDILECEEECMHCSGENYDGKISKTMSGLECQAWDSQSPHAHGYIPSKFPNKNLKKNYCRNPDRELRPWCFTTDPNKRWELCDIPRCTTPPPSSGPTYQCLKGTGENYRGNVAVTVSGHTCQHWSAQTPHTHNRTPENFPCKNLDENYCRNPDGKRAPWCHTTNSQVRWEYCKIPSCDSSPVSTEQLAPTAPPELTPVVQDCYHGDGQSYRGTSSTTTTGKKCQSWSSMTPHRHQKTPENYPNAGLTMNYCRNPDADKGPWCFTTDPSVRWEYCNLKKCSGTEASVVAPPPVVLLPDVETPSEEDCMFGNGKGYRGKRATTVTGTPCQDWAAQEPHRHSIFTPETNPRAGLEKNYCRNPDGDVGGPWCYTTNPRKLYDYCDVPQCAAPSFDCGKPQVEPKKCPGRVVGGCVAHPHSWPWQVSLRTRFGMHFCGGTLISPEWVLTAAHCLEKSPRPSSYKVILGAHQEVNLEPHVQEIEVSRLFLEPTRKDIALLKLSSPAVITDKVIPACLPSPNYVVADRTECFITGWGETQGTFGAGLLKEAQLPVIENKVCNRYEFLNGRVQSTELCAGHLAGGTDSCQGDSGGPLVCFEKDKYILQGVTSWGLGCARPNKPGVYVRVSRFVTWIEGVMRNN

relative binding (LACI-K1 phage = unit) (fold of LACI-K1 phage): 1
Substance: LACI-K1 (first Kunitz domain of human lipoprotein-associated coagulation inhibitor) (from UniProt P10646 50-107)

— US20090036365A1
